Key:
[1] = molecular target: DGK_(Cysless), cysless His6-tagged diacylglycerol kinase from Escherichia coli (Escherichia coli); assay: anion exchange chromatography of subunit exchange
[2] = molecular target: E5-DGK_(Cysless), cysless His6-tagged diacylglycerol kinase with a pentaglutamate tag (Escherichia coli); assay: anion exchange chromatography of subunit exchange

half-life of subunit exchange [1] [weeks]	percent of the expected final subunit exchange after 7 days [1] [%]	ratio of the mixed peaks to the pure peaks after 7 days [1]	half-life of subunit exchange [2] [weeks]	Substance
> 5	–	–	–	DGK_(Cysless), cysless His6-tagged diacylglycerol kinase from Escherichia coli (enzyme)
–	10	0.3	> 5	E5-DGK_(Cysless), cysless His6-tagged diacylglycerol kinase with a pentaglutamate tag (enzyme)
